pKd: −log10 of the molar value.

In assay [1] the target is GST-moesin (1–323 aa) (human) (UniProt P26038). Put plainly: pull-down.
Assay [2] has as its target HA-full-length moesin (1–577 aa) (mouse) (UniProt P26041). As to the kind of experiment: pull-down.
In assay [3] the target is MBS (myosin-binding subunit of myosin phosphatase), endogenous in MDCK cells (dog (endogenous in MDCK)). As to the kind of experiment: co-IP.

Chain of UniProt P26038 (P26038 1-323): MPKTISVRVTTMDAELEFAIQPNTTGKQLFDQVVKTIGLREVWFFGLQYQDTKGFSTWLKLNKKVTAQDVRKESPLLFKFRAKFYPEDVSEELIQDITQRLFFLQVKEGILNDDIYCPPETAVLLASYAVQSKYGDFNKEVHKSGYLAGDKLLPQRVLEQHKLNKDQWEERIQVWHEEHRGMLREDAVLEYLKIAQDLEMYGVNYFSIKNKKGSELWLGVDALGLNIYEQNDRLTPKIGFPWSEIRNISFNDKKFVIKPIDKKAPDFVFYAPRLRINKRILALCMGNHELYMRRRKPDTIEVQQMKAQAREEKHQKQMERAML
Chain of UniProt P26041 (P26041 whole entry, the tested form may be a part): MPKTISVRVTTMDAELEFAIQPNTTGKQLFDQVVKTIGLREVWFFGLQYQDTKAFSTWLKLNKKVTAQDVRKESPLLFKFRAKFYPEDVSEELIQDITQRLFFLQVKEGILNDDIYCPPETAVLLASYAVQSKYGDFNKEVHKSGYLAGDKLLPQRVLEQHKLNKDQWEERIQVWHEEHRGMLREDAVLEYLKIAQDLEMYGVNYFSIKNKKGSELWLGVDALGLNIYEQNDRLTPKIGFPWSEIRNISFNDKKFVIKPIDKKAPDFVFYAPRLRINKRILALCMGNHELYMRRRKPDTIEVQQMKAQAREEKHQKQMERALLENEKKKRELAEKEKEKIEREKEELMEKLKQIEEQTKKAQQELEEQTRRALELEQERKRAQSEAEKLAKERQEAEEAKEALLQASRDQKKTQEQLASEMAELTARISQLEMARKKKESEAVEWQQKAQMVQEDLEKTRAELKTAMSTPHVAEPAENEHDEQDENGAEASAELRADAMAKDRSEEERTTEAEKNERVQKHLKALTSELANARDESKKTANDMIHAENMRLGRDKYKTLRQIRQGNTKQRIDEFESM

Regarding “recombinant full-length rat MBS (1–976 aa), myosin-binding subunit of myosin phosphatase (natural protein)”, in assay [1], the pKd is 6.59 and the stoichiometry N was found to be 0.4. Further, the pKd in assay [2] was 5.91.

In assay [3], “moesin, endogenous in MDCK cells (natural protein)” had a percent of total moesin recovered with immunoprecipitated MBS of 0.5% and a stoichiometry N (moesin per MBS) of 0.33.

The values are drawn from article PMC2148462.
